From patent publication US20220387487A1, “COMPOSITIONS AND METHODS FOR TREATMENT OF CANCER” (Aleta Biotherapeutics Inc., priority 2019, published 2022)
Read-outs that look alike come from different tables or passages of the source.

B1: #330: fusion protein comprised of a CD19 variant and an anti-CLL-1 VHH (2H3); SEQ ID NO:305 (protein)
chain: MEFGLSWVFLVALFRGVQCQVQLQESGGGLVQAGGSLRLSCVASGSIRSINVMGWYRQAPGKQRELVAACASDGNTYYADSVKGRFTISRDNAEKTVYLQMNNLKPDDTAVYYCDANSRGNYYSGQGTQVTVSSTSGPGGQGAGGGGSGGGGSGGGGSGGGGSPEEPLVVKVEEGDTAALWCLKGTSDGPTQQLTWSRESPLKPFLKYSLGVPGLGVHVRPDAISVVIRNVSQQMGGFYLCQPGPPSEKAWQPGWTVNVEGSGELFRWNVSDLGGLGCGLKNRSSEGPSSPSGKLMSPKLYVWAKDRPEIWEGEPPCLPPRDSLNQSLSRDLTVAPGSTLWLSCGVPPDSVSRGPLSWTHVHPKGPKSLLSLELKDDRPARDMWVMGTSLMLPRATAQDAGKWYCHRGNLTMSFHLEITARPSRHHHHHH
B2: #440: fusion protein comprising an anti-CLEC12A VHH, an anti-CD33 scFv, and a CD19 ECD; SEQ ID NO:321 (protein)
chain: MEFGLSWVFLVALFRGVQCQVQLVQSGAEVKKPGESVKVSCKASGYTFTNYGMNWVKQAPGQGLEWMGWINTYTGEPTYADKFQGRVTMTTDTSTSTAYMEIRNLGGDDTAVYYCARWSWSDGYYVYFDYWGQGTSVTVSSGGGGSGGGGSGGGGSDIVMTQSPDSLTVSLGERTTINCKSSQSVLDSSTNKNSLAWYQQKPGQPPKLLLSWASTRESGIPDRFSGSGSGTDFTLTIDSPQPEDSATYYCQQSAHFPITFGQGTRLEIKGGGGSGGGGSGGGGSGGGGSQVQLQESGGGLVQAGGSLRLSCVASGSIRSINVMGWYRQAPGKQRELVAACASDGNTYYADSVKGRFTISRDNAEKTVYLQMNNLKPDDTAVYYCDANSRGNYYSGQGTQVTVSSTSGPGGQGAGGGGSGGGGSGGGGSGGGGSPEEPLVVKVEEGDTAALWCLKGTSDGPTQQLTWSRESPLKPFLKYSLGVPGLGVHVRPDAISVVIRNVSQQMGGFYLCQPGPPSEKAWQPGWTVNVEGSGELFRWNVSDLGGLGCGLKNRSSEGPSSPSGKLMSPKLYVWAKDRPEIWEGEPPCLPPRDSLNQSLSRDLTVAPGSTLWLSCGVPPDSVSRGPLSWTHVHPKGPKSLLSLELKDDRPARDMWVMGTSLMLPRATAQDAGKWYCHRGNLTMSFHLEITARPSRHHHHHH

Assays:
[1] = system: Molm14 cells; assay: CAR-CD19 T cell cytotoxicity bridged by purified fusion protein, luciferase Molm14 cells; format: cell-based; settings: FIG. 21A
Procedure: To test cytoxicity, luciferase labeled Molm14 or U937 cells were targeted for cytotoxic killing using a CAR19 T cell preparation and the purified proteins #330, #410 and #440 added in a dose titration. 1×10^4 target cells were added to each well (96 clear round bottom plate) in RPMI medium. The protein titration was started at 180 ng/ml with 3-fold serial titration into corresponding wells (25 μl per well). CAR-CD19 T cells were added at various E:T ratios to the target cells. After 48 hours the plate was centrifuged (450 RCF for 5 minutes) and the cells were washed 1× with PBS then centrifuged a second time. 20 μl lysis buffer was added into each well. The cell lysate was transferred to a 96 opaque white plate. The plates were read in a luminometer with an injector (Glomax Multi Detection System, Promega). The percent killing was calculated based upon the average loss of luminescence of the experimental vs the control (target cell only or target cell plus fusion protein only).

[2] = molecular target: CLEC12A; assay: ELISA binding of fusion proteins (FMC63 coat, HRP-anti-His detection); parameters: species or system human; settings: purified fusion protein
Chain of CLEC12A (as listed by the source): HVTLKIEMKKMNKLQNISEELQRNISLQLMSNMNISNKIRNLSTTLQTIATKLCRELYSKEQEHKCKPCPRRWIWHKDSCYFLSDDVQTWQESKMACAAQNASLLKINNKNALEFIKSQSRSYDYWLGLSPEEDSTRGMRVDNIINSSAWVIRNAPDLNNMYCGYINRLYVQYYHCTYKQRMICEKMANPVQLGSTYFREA
Procedure: The binding of the biparatopic fusion proteins to CLEC12A was also examined by ELISA. […] The plate was left to incubate overnight at 4° C. The coated plate was blocked with TBS/0.3% nonfat dry milk (NFD) for 60 minutes at RT.

[3] = system: U937 cells; assay: CAR-CD19 T cell cytotoxicity bridged by purified fusion protein, luciferase U937 cells; format: cell-based; settings: FIG. 21B
Procedure: Several fusion proteins were purified and evaluated for their ability to bridge killing of CLL-1 expressing cells by CAR-T cells that target CD19. Luciferase was introduced to U937 cells and […] by lentiviral transduction. On day 1 U937 cells were seeded at 1×10^4 per well of a round-bottom 96 well plate (Thermo Fisher) or 293T-CLL-1 cells were seeded in a flat bottom plate in cell culture media (RPMI 1640, 10% FBS). On day 2, the fusion proteins #357, #330 and #321 were added at 0.2 μg/ml (20 ng/well) with serial 3 fold dilutions where indicated, then left to incubate at 37° C. for 1 hour using the cell culture incubator. […]
On day 3, the plate was spun at 550 RCF for 5 minutes and rinsed with PBS then spun again to remove the PBS. […] The injector added 100 μl of Luciferase assay reagent per well, then the well was read immediately. The plate was then advanced to the next well for a repeat of the inject-then-read process. […]
The % cell death (aka cytotoxicity) was calculated as follows:
% killing=[1−luc reading (experimental wells)/luc reading (tumor cells without CAR T cells)]×100. […]
To test cytoxicity, luciferase labeled Molm14 or U937 cells were targeted for cytotoxic killing using a CAR19 T cell preparation and the purified proteins #330, #410 and #440 added in a dose titration. […] The plates were read in a luminometer with an injector (Glomax Multi Detection System, Promega). […]

[4] = molecular target: CD33 (Homo sapiens, UniProt P20138); assay: ELISA of fusion proteins, FMC63 coat, biotinylated CD33 detection; format: binding
Chain of CD33 (P20138 18-364): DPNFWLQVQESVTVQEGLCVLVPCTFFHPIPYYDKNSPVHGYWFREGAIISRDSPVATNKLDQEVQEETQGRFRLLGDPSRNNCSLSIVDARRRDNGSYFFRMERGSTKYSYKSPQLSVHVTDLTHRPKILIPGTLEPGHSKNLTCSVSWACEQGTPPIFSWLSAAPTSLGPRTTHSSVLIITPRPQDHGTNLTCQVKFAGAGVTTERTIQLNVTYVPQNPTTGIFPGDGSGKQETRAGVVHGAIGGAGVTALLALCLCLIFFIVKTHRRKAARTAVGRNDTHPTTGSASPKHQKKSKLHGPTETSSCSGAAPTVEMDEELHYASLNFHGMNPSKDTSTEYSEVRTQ
Procedure: ELISAs for binding to CD19, CLEC12A and CD33 were run using purified fusion proteins #330, #410 and #440. A 96 well plate was coated with 1.0 μg/ml FMC63 (Novus) in 0.1 M carbonate, pH 9.5 overnight at 4° C. The plate was blocked with 0.3% non-fat milk in TBS for 1 hour at room temperature. After washing in TBST (0.1 M Tris, 0.5 M NaCl, 0.05% Tween20) 3 times, the fusion protein supernatant was titrated using 3-fold dilutions in 1% BSA in TBS and incubated 1 hour at room temperature. For detection by anti-His, after washing 3 times in TBST, HRP-anti-His (BioLegend) was added at 1:2000. The plate was incubated at room temperature in the dark for 1 hour. For detection of binding to CLEC12A, biotinylated CLEC12A was added at 0.5 μg/ml and incubated for 1 hour. This was followed by adding HRP-SA (Pierce) at 1:2000 and incubated at room temperature in the dark for 1 hour. For testing binding to CD33, biotinylated CD33 was added at 0.5 μg/ml and incubated for 1 hour. This was followed by adding HRP-SA (Pierce) at 1:2000 and incubated at room temperature in the dark for 1 hour. Then, 1-Step Ultra TMB-ELISA (Thermo Fisher) solution, was added and the plate read at […]. Curves were fit using a four-parameter logistic (4 PL) regression to calculate the EC50.

[5] = ELISA, FMC63 coat, biotinylated CD33

Molecule	cytotoxicity on Molm14 cells [1]	EC50 ([2]; FMC63 coat, read-out: CLEC12A binding (ELISA EC50))	EC50 ([2]; Table 8, read-out: EC50 of binding by ELISA)	cytotoxicity on U937 cells [3]	CD33 binding EC50 pM [4, 5]	CD33 binding EC50 ng/ml [4, 5]	CD33 binding EC50 [4, 5]	ELISA binding to CD33 ([4]; Table 10)
B1	less potent	0.013 nM	0.01 nM	highest cytotoxicity	∞	∞	–	–
B2	about equipotent	–	–	essentially the same activity	–	–	2.1 ng/mL	binds equally well to both components
